In the supplement of paper PMC9112550, “Optimization of the antimicrobial peptide Bac7 by deep mutational scanning” (BMC Biology, 2022):

Tested on: Escherichia coli TOP10
Assay: shrunken log2 fold change of peptide-encoding DNA abundance (4.5 h post-induction vs induction); higher = less antimicrobial activity (less host growth inhibition)
Settings: time post-induction: 4.5 h; library: site-saturation at positions 5, 18, 19, 20
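Also: peptides expressed intracellularly from a pBAD plasmid library in pooled LB shake-flask culture, induced with 0.3% L-arabinose, DNA abundance read by NGS, three biological replicates, DESeq2 with apeglm shrinkage.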

Row | Sequence | shrunken log2 fold change
1 | RRIRWRPPRLPRPRPRPSIHPRP | -0.319
2 | RRIRFRPPRLPRPRPRPQDYPRP | 0.0577
3 | RRIRVRPPRLPRPRPRPQVIPRP | -0.00246
4 | RRIRIRPPRLPRPRPRPFLEPRP | -1.1
5 | RRIRFRPPRLPRPRPRPRWWPRP | 0.34
6 | RRIRMRPPRLPRPRPRPYTEPRP | -0.245
7 | RRIRVRPPRLPRPRPRPEDLPRP | 0.084
8 | RRIRWRPPRLPRPRPRPERSPRP | 0.317
9 | RRIRPRPPRLPRPRPRPRVHPRP | -0.0821
10 | RRIRHRPPRLPRPRPRPRRCPRP | 0.166
11 | RRIRCRPPRLPRPRPRPPDYPRP | 0.0368
12 | RRIRVRPPRLPRPRPRPYPPPRP | -0.103
13 | RRIRKRPPRLPRPRPRPYKCPRP | -0.168
14 | RRIRIRPPRLPRPRPRPRVIPRP | -0.209
15 | RRIRQRPPRLPRPRPRPVSKPRP | -0.014
16 | RRIRCRPPRLPRPRPRPTVGPRP | 0.224
17 | RRIRKRPPRLPRPRPRPKCQPRP | 0.03
18 | RRIRYRPPRLPRPRPRPWVVPRP | -0.264
19 | RRIRDRPPRLPRPRPRPRPGPRP | 1.6
20 | RRIRKRPPRLPRPRPRPVCDPRP | 0.683
21 | RRIRERPPRLPRPRPRPMGGPRP | 0.0346
22 | RRIRVRPPRLPRPRPRPRDPPRP | 0.617
23 | RRIRGRPPRLPRPRPRPRIQPRP | 0.337
24 | RRIRIRPPRLPRPRPRPILSPRP | -0.421
25 | RRIRVRPPRLPRPRPRPHPIPRP | -0.0473

Row | Sequence | shrunken log2 fold change
26 | RRIRGRPPRLPRPRPRPEFEPRP | 0.612
27 | RRIRERPPRLPRPRPRPQNVPRP | 0.16
28 | RRIRNRPPRLPRPRPRPNYAPRP | -0.178
29 | RRIRMRPPRLPRPRPRPWDLPRP | 0.36
30 | RRIRPRPPRLPRPRPRPERCPRP | 0.271
31 | RRIRERPPRLPRPRPRPQMKPRP | -0.568
32 | RRIRCRPPRLPRPRPRPPYNPRP | -0.618
33 | RRIRCRPPRLPRPRPRPYHRPRP | -0.77
34 | RRIRGRPPRLPRPRPRPMFRPRP | 0.303
35 | RRIRIRPPRLPRPRPRPIQSPRP | -0.0915
36 | RRIRYRPPRLPRPRPRPGGEPRP | 0.173
37 | RRIRYRPPRLPRPRPRPDTTPRP | 0.0425
38 | RRIRKRPPRLPRPRPRPQQPPRP | -0.041
39 | RRIRLRPPRLPRPRPRPRRMPRP | 0.053
40 | RRIRLRPPRLPRPRPRPWQKPRP | 0.0576
41 | RRIRARPPRLPRPRPRPYNQPRP | -0.306
42 | RRIRIRPPRLPRPRPRPSWLPRP | -0.373
43 | RRIRYRPPRLPRPRPRPYRRPRP | -0.00141
44 | RRIRVRPPRLPRPRPRPPDFPRP | 0.0119
45 | RRIRGRPPRLPRPRPRPDPHPRP | 0.507
46 | RRIRFRPPRLPRPRPRPFGQPRP | -0.288
47 | RRIRNRPPRLPRPRPRPRSKPRP | 0.0945
48 | RRIRCRPPRLPRPRPRPLCKPRP | -0.541
49 | RRIRWRPPRLPRPRPRPFMLPRP | -0.174
50 | RRIRPRPPRLPRPRPRPTRDPRP | 0.481

Row | Sequence | shrunken log2 fold change
51 | RRIRRRPPRLPRPRPRPAKAPRP | 0.12
52 | RRIRIRPPRLPRPRPRPRVHPRP | -0.0227
53 | RRIRNRPPRLPRPRPRPVRRPRP | 0.112
54 | RRIRDRPPRLPRPRPRPYDLPRP | -0.00674
55 | RRIRCRPPRLPRPRPRPQCYPRP | -0.474
56 | RRIRRRPPRLPRPRPRPAFIPRP | 0.115
57 | RRIRSRPPRLPRPRPRPWDDPRP | -0.0242
58 | RRIRYRPPRLPRPRPRPLGRPRP | -0.191
59 | RRIRSRPPRLPRPRPRPEVIPRP | 0.18
60 | RRIRTRPPRLPRPRPRPRFIPRP | -0.806
61 | RRIRSRPPRLPRPRPRPPSEPRP | 0.0467
62 | RRIRARPPRLPRPRPRPIFYPRP | -0.0773
63 | RRIRQRPPRLPRPRPRPAAQPRP | -0.00152
64 | RRIRLRPPRLPRPRPRPWAIPRP | -0.0706
65 | RRIRMRPPRLPRPRPRPLLWPRP | 0.914
66 | RRIRWRPPRLPRPRPRPPQFPRP | -0.108
67 | RRIRGRPPRLPRPRPRPDTWPRP | 0.465
68 | RRIRKRPPRLPRPRPRPLINPRP | -0.149
69 | RRIRNRPPRLPRPRPRPYVHPRP | -0.253
70 | RRIRARPPRLPRPRPRPLCPPRP | 0.0472
71 | RRIRPRPPRLPRPRPRPMVYPRP | -0.228
72 | RRIRNRPPRLPRPRPRPTHYPRP | -0.109
73 | RRIRPRPPRLPRPRPRPMIKPRP | -0.696
74 | RRIRVRPPRLPRPRPRPYHHPRP | -0.0938
75 | RRIRERPPRLPRPRPRPAANPRP | 0.0774

Row | Sequence | shrunken log2 fold change
76 | RRIRHRPPRLPRPRPRPQVLPRP | -0.0535
77 | RRIRCRPPRLPRPRPRPMCLPRP | -0.201
78 | RRIRQRPPRLPRPRPRPLPGPRP | 0.0661
79 | RRIRLRPPRLPRPRPRPAQAPRP | -0.0635
80 | RRIRWRPPRLPRPRPRPFAWPRP | 0.179
81 | RRIRGRPPRLPRPRPRPYYTPRP | 1.19
82 | RRIRFRPPRLPRPRPRPDNVPRP | -0.336
83 | RRIRYRPPRLPRPRPRPKGDPRP | -0.0902
84 | RRIRARPPRLPRPRPRPGCTPRP | 0.552
85 | RRIRTRPPRLPRPRPRPEPKPRP | 0.376
86 | RRIRPRPPRLPRPRPRPTTDPRP | 0.0167
87 | RRIRMRPPRLPRPRPRPAMGPRP | 0.867
88 | RRIRRRPPRLPRPRPRPIRCPRP | 0.334
89 | RRIRSRPPRLPRPRPRPNEIPRP | -0.12
90 | RRIRCRPPRLPRPRPRPGFSPRP | -0.257
91 | RRIRFRPPRLPRPRPRPDFHPRP | -0.287
92 | RRIRERPPRLPRPRPRPFWWPRP | 0.239
93 | RRIRSRPPRLPRPRPRPLEKPRP | -0.0565
94 | RRIRFRPPRLPRPRPRPLLWPRP | 0.305
95 | RRIRHRPPRLPRPRPRPMIVPRP | 0.0837
96 | RRIRSRPPRLPRPRPRPCCLPRP | -0.125
97 | RRIRNRPPRLPRPRPRPITSPRP | -0.282
98 | RRIRCRPPRLPRPRPRPFYSPRP | -0.507
99 | RRIRHRPPRLPRPRPRPGRPPRP | 0.616
100 | RRIRHRPPRLPRPRPRPRPDPRP | 0.179

Row | Sequence | shrunken log2 fold change
101 | RRIRSRPPRLPRPRPRPRLKPRP | -0.0978
102 | RRIRTRPPRLPRPRPRPGHHPRP | -0.27
103 | RRIRIRPPRLPRPRPRPMVSPRP | -0.044
104 | RRIRCRPPRLPRPRPRPKREPRP | 0.636
105 | RRIRKRPPRLPRPRPRPYSPPRP | -0.23
106 | RRIRYRPPRLPRPRPRPPANPRP | 0.169
107 | RRIRGRPPRLPRPRPRPIMYPRP | 0.0639
108 | RRIRSRPPRLPRPRPRPLLKPRP | 0.253
109 | RRIRYRPPRLPRPRPRPFAPPRP | -0.386
110 | RRIRGRPPRLPRPRPRPWTHPRP | -0.0708
111 | RRIRVRPPRLPRPRPRPFDIPRP | 0.145
112 | RRIRGRPPRLPRPRPRPTRSPRP | 1.18
113 | RRIRARPPRLPRPRPRPICIPRP | 0.227
114 | RRIRRRPPRLPRPRPRPIAMPRP | 0.0579
115 | RRIRCRPPRLPRPRPRPLPDPRP | 0.33
116 | RRIRDRPPRLPRPRPRPIWTPRP | 0.0557
117 | RRIRERPPRLPRPRPRPQVPPRP | -0.103
118 | RRIRDRPPRLPRPRPRPSELPRP | -0.184
119 | RRIRFRPPRLPRPRPRPAAYPRP | -0.341
120 | RRIRCRPPRLPRPRPRPCGFPRP | -0.29
121 | RRIRCRPPRLPRPRPRPQKIPRP | -0.252
122 | RRIRFRPPRLPRPRPRPMYPPRP | -0.249
123 | RRIRWRPPRLPRPRPRPHNMPRP | -0.623
124 | RRIRSRPPRLPRPRPRPSYDPRP | -0.609
125 | RRIRWRPPRLPRPRPRPFHTPRP | -0.171
